# According to the nanobody polyreactivity screen of Harvey et al. (2022):
# Assay: yeast display, Sf9 membrane polyspecificity reagent, FACS + sequencing; frameworks hold sequencing errors
# Summary of the method: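 Galactose-induced (36–48 hours) yeast carrying a synthetic nanobody display library were exposed to 10% biotinylated, detergent-solubilized Sf9 membrane reagent at 4 °C for 1 hour. FACS followed streptavidin microbead enrichment, using low and high (top ~1%) gates for expression (anti-HA) and reagent binding (streptavidin). Colony PCR, MiSeq 2 × 250 sequencing and CDR-length filtering followed. Labels for polyreactivity reflect the gate of origin.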
row,Sequence,polyreactivity (PSR sort gate)
1,QVQLVESGGGLVQAGGSLRLSCAASGSTLWRYTMGWYRQAPGKVREFVADINRGSSTNYADSVKGRFTISRDNAKNSVYLQINSLKPEDTAVYYCAAAKVHYGYNSWYYYWRQGTQVTVSS,low polyreactivity
2,QVQLVESGGGLVQAGGSLRLSCAASGRTFLLYAMGWYRQAPGKERELVAAISIGGGSTRYADSVKGRFTISRDNAKNTVYLQMNSLKPEDTAVYYCAALGRRGGDYWGQGTEVTVSS,high polyreactivity
3,QVQLVESGGGLVQAGGSLRLSCAASGRTFIRNVMGWYRQAPGKERELVAGITGGGNTYYADSVKGRFTISRDNAKNTVYLQMNSLKPEDTAVYECAVRYPSYGLSYVRYGYWGQVTQVTVSS,high polyreactivity
4,QVQLVESGGGLVQAGGSLRLSCAASGFIFSAYSMGWYRPEPGKERELVAAISYSGGTTYYADSVKGRFTISRDNAKNTLYLQMNSLKPEDTAVYYCAAGVGYWGQGTQVTVSS,high polyreactivity
5,QDQLVESGGGLVQAGGSLRLSCAASGSIFRYYAMGWYIQAPGKERELVAAITNSGGSTYYADSVKGRFTISRDNAKNTVYLQMNSLKPEDTAVYYCNARFRARPRMGYWGQGTQVTVSS,high polyreactivity
6,QVQLVETGRGLVQAGGSLRLSCAHSGRTFFSYAMGWYRQAPGKEREFVAAITGGGTYYADSVKRRFTISSDNAKNTVYLHMNSLKPEDTAVYYCAAAKRGTDYLSSFWMDYWGQVTQVTVSS,low polyreactivity
7,QVQLVESGGGLVQAGGSLRLSCAASGRIFRGYAMGWSRQAPGKERELVAAITSRGGSTYADSVKGRFTISRDNAKNTVYLQMNSLKPEDTAVYYCNAGYRADSSKLVFRGYPRYDYWGQGTQVTVSS,low polyreactivity
8,QVQLVESGGGLVQAGGSLRLSCAASGRTFGGYAMGWYRQAPGKERELVAAISRSGGSTRYADSVKGRFTISRDNAKNTVYLQMNSLKPEDTAVYYCAARQKYEILMEYWGQGTQVTVSS,high polyreactivity
9,QVQLVESGGGLVQAGGSLRLSCAASGSTFDTNAMGWYRQAPGKERELVATITSIGGSTYADSVKGRFTISRDNAKNTVYLQMNSLKPEDTAVYYCATDYVEIDYDYDYWGQGTQVTVSS,low polyreactivity
10,QVQLVESGAGLVQAGGSLRLSCAPSGRTFGYNAMGWYRQAPGKERELVATISSSTVSTSYADSVKGRFTISRDNAKNTVYLQMNSLKPEDTAVYYCNARSRVSPTERVPYDSWGHGTQVTVSS,low polyreactivity
11,QVQLVESGGGLVQAGGSLPLSCAASGSIFKPYAMGWYRQAPGKERELVAVISWRGGSTYYADSVKGRFTISRDNAKNTVYLQMNSLKPEDTAVYYCAARRYRYFDGTVPLDYWGQGTQVTVSS,high polyreactivity
12,QLQLVESLRGLVQAGGSLRLSCAASVSIIGPNAMGLYRQATGKERELVAAITLSGGSTYYADSVKGRFTISRDNAKNTVYLQMNSLKPEDTAVYYCNADLLPADAPLWVTGGDYWGQGTQVTESS,low polyreactivity
13,QVQLVESGGGLVQAGGSLRLSCAASGFTFSVNDMGWYRQAPGKERELVAGISRGDNTNYADSVKGRFTISRDNAKNTVYLQMNSLKPEDTAVYYCAADFSLGLYRSWFGDYDYWGQGTQVTVSS,low polyreactivity
14,QVQLVESGGGLDQPGGSLRLSCAASGRIFRTYAMGWYRQAPGKQRELVAAINSVHRTYYADSVKGRFTITRDNAKNTVNLQMYCQKPEDSAVYYCNARYVLKVSQYGYWGQGTQVTVSS,high polyreactivity
15,QVQLVESGGGLVQAGGSLRLSCAASGRTFYVYVMGWYRQAPGKEREFVAAINYGSTYYADSVKGRFTISRDNAKNTVYLQMNSLIPEDTAVYYLGQGTQVTVSS,low polyreactivity
16,QVQLVESGGGLVQAGGSLRLSCAASGSIFGYYAMGGYRQAPGKERELVAAISVNGGRTYYADSVKGRFTISRDNAKNTVYLQMNSLKPEDTAVYYCAAELVDYITFRGDYYYWGQGTQVTVSS,high polyreactivity
17,QVPLVESGGGLVQAGGSLRLSWAASGRTFVPYAMGWDSPAPGKDWELVAAISSGGDTNYADSVKGRVTISRDNAKNTVYLQMNSLKPEDTAVSYCAADVKRDRVWGGDYWGQGTQVTVSS,low polyreactivity
18,QVQLVESGGGLDQAGGSLRLSSAAYGRIFRRYAMGWYRQSHGKERELVAAITSGGGSTYYADSVKGRFTISRDNAKNTVYLQMNSLKPEETAVYYCNKSSLEFVKGKYGYWGQGTQVTVSS,low polyreactivity
19,QVQLVESGGGLVHAGGSLRLSCAASGFIFDTYLMGRYRQAPGTERELVAAISRTGGRTYYADSVKGRFTISRDNAKYTVYLQMNSLNPEDTAVYYCNRAPHIAPEDYDYWGQGTQVTVSS,high polyreactivity
20,QVQLVESAGGLVQAGGSLRLSCAASGNTFPPYPMGWYRQAPGKERELVAAISCGGRTYYADSVKGRFTISRDNAKNTVYLQMNSLKPEDTAVYYCAVYVPNYYSYHYDYWGQGTQVTVSS,high polyreactivity
21,QVQLVESGGGLVQAGGSLRLSCAASGFTFNFNAMGWYRQAPGKERELVAAIRWSGGNTYYADSVKGRFTISRDNAKNTVYLQMNSLKPEDTAVYYCNRVGYQSMNYWGQGTQVTVSS,low polyreactivity
22,QVQLVESGGGLVQAGGSLRLSCAASGSTLYTYAMGWYRQAPGKERELVATISWSGSSTYYADSVKGRFTISRDNAKNTVYLQMNSLKPEDTAVYDCAAPYHYWYRLDYWGQGTQVTVSA,high polyreactivity

row,Sequence,polyreactivity (PSR sort gate)
1,QVQLVESGGGLVQAGGSLRLSCAASGFIFDWNTMGWYRQAPGKERELVAAITESSGSTYYADSVKGRFTISRDNAKNTVYLQMNSLKPEDTAVYDCAADFSYVYYLYDYWGQGTQVTVSS,low polyreactivity
2,QVQLEDSGGGLVQAGGSLRLSCAASGSIFATNAMGWYRQGPGKERELVAAISRSGASTYYADSVKGRFTISRDNAKNTVYLQMNRLKPEDTAVYYCNKVLYRDAYHSYGFEYWGQGTQVTVSS,high polyreactivity
3,QVQLQESGGCLVQADGSLRLSCAASGSIFGYYYMGWYRQAPGKDRELVATINICGITNYADSVKGRFTISRDNAKNTVYLQMNSLKPDDTAVYYCAADEYAQRDLGYWGQGTQVTVSS,low polyreactivity
4,QVQLVESGGCLVQSGGRLRLSCAASGRIFYPYVMGWYRQAPGKEREFVAAITRSGGSTNADSVKGLFTISRDNAKNTVYLLLNSLKPEDTAVYYCARRVNRRYPFYQRDYWGQGTQVTVSS,high polyreactivity
5,QDQLVETGGGLVQAGGSLRLSCAASGIIFYPNAMGWYRQAPGKERELVAAISWRSGSTYYADSVKGRFTISRDNAKNTVYLQMNSLKPEDTAVYYCAADRRRSYIWRYDYWGQGTQVTVSS,low polyreactivity
6,QVQLVESGGGLVQAGGSLRLSCAASGSTFHLYAMGWYRQAPGKEREFVAAIRGRGGNTYADSVKGRFTISRDNAKNTVYLQMNSLKPEDTAFYYCAAPLLRDLRSPYSYNYWGQGTQVTVSS,low polyreactivity
7,QVQLVESGGGLVQAGGSLRLSCAASGFTSGYYAMGWYRQAPGKERELVAAISFSGDDTYYADSVKGRFTISRDNAKNTVYLQMNCLKPEVTAVYYCAAEYDLYFLDQGYWYVAFDYWGQGTQVTVSS,high polyreactivity
8,QVQLVESGGGLVQAGGSLRLSCAASGSTFWPYAMGWCRQAPGKERELVAAITWSGGRTYYADSVKGRFTISRDNAKNTVYLQMYSLKPEDTAVYYCAAYYRQGIAPNGFDYWGQGTQVTVSS,high polyreactivity
9,QVQLVESGGGLVQAGGSLRLSCAASGSTFPTYGMGWYRQAPGKEREFVARINWNGGGTYYADSVKGRFTISRDNAKNTVYLQMNSLKPEDTAVYYCNARKRGARFILGYDYWGQGTQVTVSS,low polyreactivity
10,QVQLVESGGGLVQAGGSLRLSCAASGFIFVKYDMGWYRQAHGKERELVAAITTSGTGTFYADSVKGRFTISRDNAKNTVDLQMNSLKPEDTAVYYCNSLGHPGDDWGQGTQVTVSS,low polyreactivity
11,QVQLVESGRGLVQAGGSLRLSCAASGFIFLKFAKGWYRQAPGKERELVARITSTGGSTYYADSVKGRFTISRDNAKNTVYLQMNSLKPEDTAVYYCARDTVPSSDPWYYAWGGFEFDYWGQGTQVTVSS,low polyreactivity
12,QVQLVESGGGLVQAGGSLRLSCAASGYIFYHNTMGWYRQEPGKERELVAAITIGGRTYYADSVKGRFTISRDNAKNTVYLQMNSLKPEDTAVYYCATASYRNPSDYWGQGTQVSVSS,high polyreactivity
13,QVQLVESGGGLVQAGASLRLICAASGYTSSGYAMGRYRHAPGKERELVAAISADGGSTYYADSVKGRFTISRDNAKNTVYLQMNSLKPEDTAVYYCAKYTYPYTPYSWWYDYWGQGTQVTVSS,low polyreactivity
14,QVQLVESGGGLVQAGGSLRLSCAASGFIYGLYAMGWYRQAPGKERELVASISRRGGSTYSADSVKGRVTISRDNAKNTVYLQMNSLKPEDTAVYYCAVDIVSIRGYTYGYWGQGTQVTVSS,high polyreactivity
15,QVQLVESGGGLVQAGGSLRLSCAASGRTFYHNAMGWYRQAPGKERELVAAITSGARTKYADSVKGRFTISRDNAKNTVYLQMNSLKPEDTAVYYCAAVYYFGKGKTFDYWGQGTQVTVSS,high polyreactivity
16,QVQLVESGGGLVQAGGSLRLSCAASGSIFKYYTMGWYRQAPGKERELVSGISYRGGSTYYADSVKGRFTISRDNAKNTVYLQMNSLKPEDTAVYYCNAVQLSGGDYWGQGTQVTVSS,high polyreactivity
17,QVQLVESGGGLVQAGGSLRLSCAASGSIFYAYAMGWYRQAPGKERQLVAAIRSSDSRTYYADSVKGRFTISRDNAKNTVYLQMNSLKPEDTGVYYCDADGSRKVKFDYWGQGTQVTVSS,high polyreactivity
18,QVQLVESGGGLVQAGGSLRLSCAASGLTFQLYGMGWYRQAPGKERELVAAISGSGGRTYYADSVKGRFTISRDNAKNTVYLQMNSLKPEDTAVYYCAARPGSGRSYTSDYWGQGTQVNVSS,high polyreactivity
19,QVQLVESAGGLVQAGGSLRLSCAASGSIFYEYAMGWYRQAPGKERELVATITWTDDSTYYADSVKGRFTISRDNAKNTVYLQMNSLKPEDTAVYYCNADLWPGNHDGYWGQGTQVTVSS,low polyreactivity
20,QVQLVESGGGLVQAGGSLRLSCAASGFNFYDYTMGWYRQAPGKERELVAAISWSGGSTYHADSVKGRFTISRDTAKNTVYLQMNSLKPEDTAVYYCNADYGYYKSGYGFDYWGQGTKVTVSS,low polyreactivity
21,QVQLVESGGGLVHAGGSLRLSCAASGFTFGTYAMGWYRQAPGKEMELVSAISWKGGSTFYADSVKGRFTISRDNAKNTVYLQMNSLKPEDTAVYYCSKLLRRGGHRVFTYDYWGQGTQVTVSS,high polyreactivity
